From patent US20250313633A1

Columns and labels:
[1] = target: human full-length B7H3 on MCF-7 cells (human) (UniProt Q5ZPR3); experiment: FACS on MCF-7 cells; negative control
[2] = target: cynomolgus monkey B7H3 on transfected FlpinCHO cells (W3XX088-FlpinCHO.cProl.pool) (cynomolgus monkey); experiment: FACS on cynomolgus monkey B7H3-transfected FlpinCHO cell pool; negative control
[3] = target: human full-length B7H3 on MCF-7 cells (human) (UniProt Q5ZPR3); experiment: cell-based or functional assay

human full-length B7H3 on MCF-7 cells (human), sequence (Q5ZPR3 29-534): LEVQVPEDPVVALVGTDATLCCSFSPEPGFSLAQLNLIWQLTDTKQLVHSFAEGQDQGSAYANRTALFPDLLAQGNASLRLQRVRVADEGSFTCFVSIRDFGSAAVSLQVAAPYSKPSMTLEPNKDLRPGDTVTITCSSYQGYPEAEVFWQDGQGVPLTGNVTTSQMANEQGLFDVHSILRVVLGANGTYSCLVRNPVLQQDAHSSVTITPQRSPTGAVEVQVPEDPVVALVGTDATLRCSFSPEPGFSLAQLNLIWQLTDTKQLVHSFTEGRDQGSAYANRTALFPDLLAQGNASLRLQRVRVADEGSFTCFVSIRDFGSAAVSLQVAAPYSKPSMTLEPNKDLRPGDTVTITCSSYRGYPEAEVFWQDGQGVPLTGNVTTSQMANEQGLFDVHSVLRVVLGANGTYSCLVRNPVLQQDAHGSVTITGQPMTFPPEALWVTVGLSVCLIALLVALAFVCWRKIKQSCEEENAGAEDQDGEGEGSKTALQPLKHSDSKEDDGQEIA

Max MFI [1]: 47.8 MFI
Max MFI [2]: 6.67 MFI
Internalization on MCF-7, Max MFI [3]: 21 MFI
Substance: Human IgG1 isotype antibody
